Data set [1] has as its target T1, GST-GT-4 (Arabidopsis thaliana, UniProt Q9LU92 1-372).
T1 sequence: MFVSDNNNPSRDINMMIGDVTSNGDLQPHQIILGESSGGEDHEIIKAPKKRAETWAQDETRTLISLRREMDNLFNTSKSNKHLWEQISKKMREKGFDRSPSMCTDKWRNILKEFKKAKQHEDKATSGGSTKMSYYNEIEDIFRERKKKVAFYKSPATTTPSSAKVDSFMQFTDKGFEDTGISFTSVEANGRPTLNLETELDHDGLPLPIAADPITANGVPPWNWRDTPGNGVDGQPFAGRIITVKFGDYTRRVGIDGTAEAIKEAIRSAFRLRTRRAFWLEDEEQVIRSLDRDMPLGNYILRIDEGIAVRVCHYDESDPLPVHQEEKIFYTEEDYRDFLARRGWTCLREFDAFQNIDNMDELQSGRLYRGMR
As to the kind of experiment: EMSA; Probes annealed in 50 mM NaCl (70 C 5 min, then room temperature); EMSA binding buffer, pH and temperature not given (as in ref. 57). To be noted: protein: recombinant; tags: N-terminal GST (pGEX6p-1); label: digoxigenin. On the technique in general: A gel shift assay detects complexes by their altered migration in electrophoresis.

The target in data set [2] is T1, GST-GT-4. The data set can be described thus: EMSA; unlabeled competitor reduces band; Probes annealed in 50 mM NaCl (70 C 5 min, then room temperature); EMSA binding buffer, pH and temperature not given (as in ref. 57). To be noted: protein: recombinant; tags: N-terminal GST (pGEX6p-1); label: digoxigenin; annealed complementary oligos.

B1: Cor15A promoter 60 bp fragment with GT-3b box (dsDNA)
DNA 1: TTTCTTTAAGGAAATACATCAGAGAGAAAAATTATTACGAAACGATTCTATTACAAGTAA
DNA 2: TTACTTGTAATAGAATCGTTTCGTAATAATTTTTCTCTCTGATGTATTTCCTTAAAGAAA
Regarding B1, the binding result with GST-GT-4 [1] is given as “binds”.

B2: P2 (GT-3b box) (dsDNA)
DNA 1: CGGAAAAATCGAAAAATCGAAAAATT
DNA 2: AATTTTTCGATTTTTCGATTTTTCCG
In the case of B2, in the data set with GST-GT-4 [2], the binding result was “binds”.

B3: P1 (GT-3 box) (dsDNA)
DNA 1: CGGGGTAAATAGGTAAATAGGTAAATA
DNA 2: TATTTACCTATTTACCTATTTACCCCG
B3: in the data set with GST-GT-4 [2], the binding result is “binds”.

B4: P7 (MRE4) (dsDNA)
DNA 1: TATCTCACCGTTACCTCTCACCGTTACCTCTCACCTACCATT
DNA 2: AATGGTAGGTGAGAGGTAACGGTGAGAGGTAACGGTGAGATA
As for B4, the binding result with GST-GT-4 [2] is reported as “binds”.
